From patent publication US20120238493A1 (INDIANA UNIVERSITY RESEARCH AND TECHNOLOGY, published 2012)
*1 amine or outer side, *2 acyl side, *3 side chain or, on linkers, in order; H or OH if unused. Where no end group is shown, it is not given here. Side-chain parts run from the residue outwards. [ ]: non-standard residue; d: D form. The star is where a group is joined. γGlu = O=C(O)[C@H](CCC(=O)[*:2])N[*:1]; Palmitoyl = CCCCCCCCCCCCCCCC(=O)*; Myristoyl = CCCCCCCCCCCCCC(=O)*; 40K‑ME = not defined here; 40K‑TE = not defined here; Ac3c = NC1(C(=O)O)CC1; Aib = CC(C)(N)C(=O)O

T1: GIP receptor (UniProt P48546 22-466, limits assumed)
T1 sequence (looked up): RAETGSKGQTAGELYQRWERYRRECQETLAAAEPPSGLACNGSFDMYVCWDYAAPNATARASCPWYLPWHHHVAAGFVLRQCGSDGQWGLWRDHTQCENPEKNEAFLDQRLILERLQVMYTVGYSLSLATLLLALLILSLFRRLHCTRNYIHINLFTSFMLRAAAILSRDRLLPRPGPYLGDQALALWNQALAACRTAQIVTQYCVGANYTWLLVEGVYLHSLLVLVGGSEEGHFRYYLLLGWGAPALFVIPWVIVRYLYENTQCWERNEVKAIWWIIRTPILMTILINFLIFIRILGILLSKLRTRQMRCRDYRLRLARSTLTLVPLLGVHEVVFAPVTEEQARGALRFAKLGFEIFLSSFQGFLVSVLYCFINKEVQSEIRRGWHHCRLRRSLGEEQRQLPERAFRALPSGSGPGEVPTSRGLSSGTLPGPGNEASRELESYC


What was measured:
Assay in all cases: cell-based or functional assay
glucagon receptor = glucagon receptor (UniProt P47871 26-477, limits assumed)
Sequence of glucagon receptor (P47871 26-477 limits assumed): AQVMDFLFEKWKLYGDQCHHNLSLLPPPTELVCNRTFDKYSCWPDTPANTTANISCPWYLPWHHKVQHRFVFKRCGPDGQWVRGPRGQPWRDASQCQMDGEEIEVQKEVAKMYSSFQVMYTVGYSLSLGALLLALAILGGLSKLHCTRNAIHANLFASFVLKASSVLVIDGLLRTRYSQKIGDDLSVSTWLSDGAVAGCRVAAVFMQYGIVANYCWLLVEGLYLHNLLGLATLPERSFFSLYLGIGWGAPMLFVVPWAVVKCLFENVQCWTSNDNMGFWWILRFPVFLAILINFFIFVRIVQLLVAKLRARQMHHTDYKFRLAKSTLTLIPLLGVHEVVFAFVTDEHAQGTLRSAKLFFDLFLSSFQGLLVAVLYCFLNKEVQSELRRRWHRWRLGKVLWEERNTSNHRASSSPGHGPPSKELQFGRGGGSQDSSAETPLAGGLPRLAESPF

GLP-1 receptor = GLP-1 receptor (UniProt P43220 24-463, limits assumed)
GIP receptor = biological target: T1, GIP receptor

Binder	EC50 (cAMP reporter) (glucagon receptor)	EC50 (cAMP reporter) (GLP-1 receptor)	EC50 (cAMP reporter) (GIP receptor)
Y[Aib]EGTFISDYSIYLDKQAA[Aib]EFVNWLLAGGPSSGAPPPSC(40K‑TE)-NH2 (not fully specified; reading uncertain) [peptide of SEQ ID NO: 72]	1.68 nM	2.69 nM	0.035 nM
YXEGTFTSDYSIYLDKQAAXEFVNWLLAGGPSSGAPPPSC (not fully specified; aib at 2; acpc at 20; C-terminal C(40K-TE); NH2) [peptide of SEQ ID NO: 73]	~10 nM	0.91 nM	1.56 nM
Y[Aib]QGTFTSDYSIYLDKEAA[Aib]KFVNWLLAGGPSSGAPPPSC-NH2 (lactam (positions not given here); also: lactam between underlined residues, underlining not shown) [peptide of SEQ ID NO: 58]	0.063 nM	0.014 nM	0.005 nM
Y[Aib]QGTFTSDYSIYLDKQAA[Aib]EFVC(40K‑ME)WLLAGGPSSGAPPPSK(Palmitoyl)-NH2 (not fully specified; reading uncertain) [peptide of SEQ ID NO: 70]	0.018 nM	0.007 nM	0.014 nM
H[Aib]QGTFTSDK([γGlu-Palmitoyl])SKYLDERRA[Aib]EFVQWLLDGGPSSGAPPPS-NH2 (N-terminus assumed; SMILES CCCCCCCCCCCCCCCC(=O)N[C@@H](CCC(=O)NCCCC[C@H](NC(=O)[C@H](CC(=O)O)NC(=O)[C@H](CO)NC(=O)[C@@H](NC(=O)[C@H](Cc1ccccc1)NC(=O)[C@@H](NC(=O)CNC(=O)[C@H](CCC(N)=O)NC(=O)C(C)(C)NC(=O)[C@@H](N)Cc1c[nH]cn1)[C@@H](C)O)[C@@H](C)O)C(=O)N[C@@H](CO)C(=O)N[C@@H](CCCCN)C(=O)N[C@@H](Cc1ccc(O)cc1)C(=O)N[C@@H](CC(C)C)C(=O)N[C@@H](CC(=O)O)C(=O)N[C@@H](CCC(=O)O)C(=O)N[C@@H](CCCNC(=N)N)C(=O)N[C@@H](CCCNC(=N)N)C(=O)N[C@@H](C)C(=O)NC(C)(C)C(=O)N[C@@H](CCC(=O)O)C(=O)N[C@@H](Cc1ccccc1)C(=O)N[C@H](C(=O)N[C@@H](CCC(N)=O)C(=O)N[C@@H](Cc1c[nH]c2ccccc12)C(=O)N[C@@H](CC(C)C)C(=O)N[C@@H](CC(C)C)C(=O)N[C@@H](CC(=O)O)C(=O)NCC(=O)NCC(=O)N1CCC[C@H]1C(=O)N[C@@H](CO)C(=O)N[C@@H](CO)C(=O)NCC(=O)N[C@@H](C)C(=O)N1CCC[C@H]1C(=O)N1CCC[C@H]1C(=O)N1CCC[C@H]1C(=O)N[C@@H](CO)C(N)=O)C(C)C)C(=O)O) [peptide of SEQ ID NO: 79]	0.004 nM	0.006 nM	0.003 nM
Y[Aib]QGTFTSDK([γGlu-Myristoyl])SIYLDKQAA[Aib]EFVNWLLAGGPSSGAPPPSC(40K‑ME)-NH2 (reading uncertain) [peptide of SEQ ID NO: 68]	50.1 nM	0.612 nM	0.862 nM
Y[Aib]QGTFTSDK([γGlu-Palmitoyl])SIYLDKQAA[Aib]EFVNWLLAGGPSSGAPPPSC(40K‑ME)-NH2 (reading uncertain) [peptide of SEQ ID NO: 69]	0.055 nM	0.02 nM	0.015 nM
H[Aib]QGTFISDYSIYLDKQAA[Ac3c]EFVNWLLAGGPSSGAPPPSC(40K‑TE)-NH2 (not fully specified; reading uncertain) [peptide of SEQ ID NO: 74]	2.52 nM	6.42 nM	2.54 nM
Y[Aib]QGTFISDYSIYLDKQAA[Ac3c]EFVNWLLAGGPSSGAPPPSC(40K‑TE)-NH2 (not fully specified; reading uncertain) [peptide of SEQ ID NO: 75]	3.12 nM	17.7 nM	2.44 nM
Y[Aib]QGTFTSDYSIYLDKEAA[Aib]KFVNWLLAGGPSSGAPPPSC(40K‑TE)-NH2 (lactam (positions not given here); reading uncertain; also: lactam between underlined residues, underlining not shown) [peptide of SEQ ID NO: 59]	0.432 nM	0.063 nM	0.122 nM
H[Aib]EGTFTSDK([γGlu-Palmitoyl])SKYLDERAAQDFVQWLLDGGPSSGAPPPS-NH2 (N-terminus assumed; SMILES CCCCCCCCCCCCCCCC(=O)N[C@@H](CCC(=O)NCCCC[C@H](NC(=O)[C@H](CC(=O)O)NC(=O)[C@H](CO)NC(=O)[C@@H](NC(=O)[C@H](Cc1ccccc1)NC(=O)[C@@H](NC(=O)CNC(=O)[C@H](CCC(=O)O)NC(=O)C(C)(C)NC(=O)[C@@H](N)Cc1c[nH]cn1)[C@@H](C)O)[C@@H](C)O)C(=O)N[C@@H](CO)C(=O)N[C@@H](CCCCN)C(=O)N[C@@H](Cc1ccc(O)cc1)C(=O)N[C@@H](CC(C)C)C(=O)N[C@@H](CC(=O)O)C(=O)N[C@@H](CCC(=O)O)C(=O)N[C@@H](CCCNC(=N)N)C(=O)N[C@@H](C)C(=O)N[C@@H](C)C(=O)N[C@@H](CCC(N)=O)C(=O)N[C@@H](CC(=O)O)C(=O)N[C@@H](Cc1ccccc1)C(=O)N[C@H](C(=O)N[C@@H](CCC(N)=O)C(=O)N[C@@H](Cc1c[nH]c2ccccc12)C(=O)N[C@@H](CC(C)C)C(=O)N[C@@H](CC(C)C)C(=O)N[C@@H](CC(=O)O)C(=O)NCC(=O)NCC(=O)N1CCC[C@H]1C(=O)N[C@@H](CO)C(=O)N[C@@H](CO)C(=O)NCC(=O)N[C@@H](C)C(=O)N1CCC[C@H]1C(=O)N1CCC[C@H]1C(=O)N1CCC[C@H]1C(=O)N[C@@H](CO)C(N)=O)C(C)C)C(=O)O) [peptide of SEQ ID NO: 80]	1.28 nM	0.008 nM	0.026 nM
